pKd: −log10 of the molar value.

We go through 4 substances from patent US20260266833A1.

One assay addresses H3K9me3 peptide. Description: fluorescence polarization, FITC-peptide 0.5 nM.
The target of assay [1] is H3K27me3-marked histone H3 in chromatin of mouse embryonic stem cells (mouse). Description: ChIP-seq of the EGFP control in mESCs, correlation with antibody ChIP-seq of the mark, 1-kb bins on chromosome 19.
Assay [2] deals with H3K9me3-marked histone H3 in chromatin of mouse embryonic stem cells (mouse). The description is as above.
The target of assay [3] is H3K4me3 (mouse). The assay is described as above.
Assay [4] addresses H3K27me3-marked histone H3 in chromatin of mouse embryonic stem cells (mouse). Nature of the assay: ChIP-seq of the EGFP control in mESCs, correlation with antibody ChIP-seq of the mark, counts at 1-kb intervals.
Assay [5] has as its target H3K9me3-marked histone H3 in chromatin of mouse embryonic stem cells (mouse). The assay is described as above.
The target in assay [6] is H3K4me3 (mouse). The assay is described as above.

Sequence of Cbx1.wt chromodomain (tags removed), P83916 17-79 (P83916 17-79 limits assumed): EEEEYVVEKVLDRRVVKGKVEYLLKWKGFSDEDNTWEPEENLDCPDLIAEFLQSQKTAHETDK
Sequence of Cbx5.wt chromodomain (tags removed), P45973 17-78 (P45973 17-78 limits assumed): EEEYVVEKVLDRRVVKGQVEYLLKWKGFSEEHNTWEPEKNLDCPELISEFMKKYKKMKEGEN
Sequence of Cbx3.wt chromodomain (tags removed), Q13185 23-81 (Q13185 23-81 limits assumed): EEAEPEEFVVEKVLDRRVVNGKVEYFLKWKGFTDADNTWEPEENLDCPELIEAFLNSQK

Consider “Cbx1.wt chromodomain (tags removed), P83916 17-79”, for which the pKd with H3K9me3 peptide is 6.30.
On the same count and under the same terms, in the case of “Cbx3.wt chromodomain (tags removed), Q13185 23-81” it was 5.70; in that of “Cbx5.wt chromodomain (tags removed), P45973 17-78”, 5.30.
For EGFP, the Pearson correlation in assay [1] was -0.1; in assay [2], -0.3; with H3K4me3 (mouse) [3] it was 0.2; in assay [4] it was 0.2; in assay [5] it was 0.32; with H3K4me3 (mouse) [6], 0.14.

In general, pKd refers to −log10 of the Kd, conventionally taken in molar units. Low readings indicate a high Kd, high ones a low Kd.
